Assays:
[1] = tested on: ornithine decarboxylase (ODC); assay: Antizyme assay: spot test growth of ODC-knockout yeast complemented with human ODC on polyamine-free medium; type: cell-based; details: for inhibition of ODC activity (growth inhibition of the yeast cells): antizyme expressed from yeast promoters ADH, GaI1 or GPD in Y15034 with p413GaIL-ODC, PFSC plate, 30° C.
Method: The polyamine-dependent yeast strain Y15034 (ODC-knockout) and the corresponding wild-type strain Y10000 were each transformed by the Li acetate method with the plasmid p413GaIL-ODC. In addition, each of the 12 antizyme expression plasmids described in Example 2 and, as control, corresponding blank plasmids were cotransformed.
The transformants were plated out on Synthetic Complete (SC) medium (His-, Ura-,2% glucose, Difco). For each transformation, an overnight culture was inoculated in PFSC medium (His-, Ura-, 2% glucose). This was used firstly to carry out a spot test, i.e. the yeasts were adjusted to OD600 3.0 and subjected to 10-fold dilutions (5×). 2 μl of each dilution, starting with OD600 3.0, were placed as a drop on a PFSC plate (His-, Ura-, 2% galactose/raffinose [1:1]), and the plates were incubated at 30° C.

antizyme = assay: Antizyme inhibitor assay: spot test growth of yeast co-expressing ODC, antizyme and AZI on polyamine-free medium; type: cell-based, human; details: AZI expressed from ADH, GaIL or GPD promoter (p415); PFSC plate, 30° C.
Method: The yeasts prepared in Example 6 were each additionally cotransformed with the 3 AZI expression plasmids (p415ADH-AZI, p415GaIL-AZI and p415GPD-AZI) described in Example 3 and with the corresponding blank plasmids.
The transformants were plated out on Synthetic Complete (SC) medium (His-, Ura-,Leu-, 2% glucose). For each transformation, an overnight culture was inoculated in PFSC medium (His-, Ura-, Leu-, 2% glucose). This was used firstly to carry out a spot test, i.e. the yeasts were adjusted to OD600 3.0 and subjected to 10-fold dilutions (5×). 2 μl of each dilution, starting with an OD600 3.0 were placed as a drop on a PFSC plate (His-, Ura-, Leu-, 2% galactose/raffinose [1:1]), and the plates were incubated at 30° C.

Sequence of ornithine decarboxylase (ODC) (P11926 whole entry): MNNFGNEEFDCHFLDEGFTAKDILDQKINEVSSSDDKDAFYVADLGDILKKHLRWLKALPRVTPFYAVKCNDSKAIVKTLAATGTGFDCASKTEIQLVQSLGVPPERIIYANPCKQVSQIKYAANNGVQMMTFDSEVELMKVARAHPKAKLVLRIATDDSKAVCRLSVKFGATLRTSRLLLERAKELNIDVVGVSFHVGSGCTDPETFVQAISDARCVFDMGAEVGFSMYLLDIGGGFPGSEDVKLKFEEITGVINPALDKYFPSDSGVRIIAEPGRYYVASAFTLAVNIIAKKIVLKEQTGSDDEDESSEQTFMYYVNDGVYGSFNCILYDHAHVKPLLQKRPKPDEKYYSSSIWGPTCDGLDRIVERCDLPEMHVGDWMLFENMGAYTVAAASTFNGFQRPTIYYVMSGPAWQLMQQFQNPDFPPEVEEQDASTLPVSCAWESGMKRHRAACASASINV

Molecule: NCCCCN [putrescine, reference compound]
- abolition of the antizyme-related growth inhibition ([1]; addition of putrescine to polyamine-free medium): abolish the growth inhibition

Molecule: Antizyme 1: human ODC antizyme 1 (Acc. No. D87914), protein that binds and inhibits ODC, expressed in yeast from plasmid
- inhibition of ODC activity (growth inhibition of the yeast cells) [1]: achieved inhibition of ODC activity only with the strong GPD promoter

B1: antizyme 2: human ODC antizyme 2 (Acc. No. AF057297), expressed in yeast from plasmid (protein, UniProt O95190 1-189, looked up)
Ornithine decarboxylase …: MINTQDSSILPLSNCPQLQCCRHIVPGPLWCSDAPHPLSKIPGGRGGGRDPSLSALIYKDEKLTVTQDLPVNDGKPHIVHFQYEVTEVKVSSWDAVLSSQSLFVEIPDGLLADGSKEGLLALLEFAEEKMKVNYVFICFRKGREDRAPLLKTFSFLGFEIVRPGHPCVPSRPDVMFMVYPLDQNLSDED
- inhibition of ODC activity (growth inhibition of the yeast cells) [1]: effective inhibition of ODC activity was made possible also by the ADH promoter

B2: antizyme 3: human ODC antizyme 3 (Acc. No. AF175296), expressed in yeast from plasmid (protein, UniProt Q9UMX2 1-235, looked up)
Ornithine decarboxylase …: MPCKRCRPSVYSLSYIKRGKTRNYLYPIWSPYAYYLYCYKYRITLREKMLPRCYKSITYKEEEDLTLQPRSCLQCSESLVGLQEGKSTEQGNHDQLKELYSAGNLTVLATDPLLHQDPVQLDFHFRLTSQTSAHWHGLLCDRRLFLDIPYQALDQGNRESLTATLEYVEEKTNVDSVFVNFQNDRNDRGALLRAFSYMGFEVVRPDHPALPPLDNVIFMVYPLERDVGHLPSEPP
- inhibition of ODC activity (growth inhibition of the yeast cells) [1]: also by the GaI1 promoter

B3: antizyme inhibitor: human antizyme inhibitor, binds antizyme and releases ODC; full-length clone from human liver cDNA, expressed in yeast (protein, UniProt O14977 1-448, looked up)
chain: MKGFIDDANYSVGLLDEGTNLGNVIDNYVYEHTLTGKNAFFVGDLGKIVKKHSQWQNVVAQIKPFYTVKCNSAPAVLEILAALGTGFACSSKNEMALVQELGVPPENIIYISPCKQVSQIKYAAKVGVNILTCDNEIELKKIARNHPNAKVLLHIATEDNIGGEEGNMKFGTTLKNCRHLLECAKELDVQIIGVKFHVSSACKESQVYVHALSDARCVFDMAGEIGFTMNMLDIGGGFTGTEFQLEEVNHVISPLLDIYFPEGSGVKIISEPGSYYVSSAFTLAVNIIAKKVVENDKFPSGVEKTGSDEPAFMYYMNDGVYGSFASKLSEDLNTIPEVHKKYKEDEPLFTSSLWGPSCDELDQIVESCLLPELNVGDWLIFDNMGADSFHEPSAFNDFQRPAIYYMMSFSDWYEMQDAGITSDSMMKNFFFVPSCIQLSQEDSFSAEA
modifications: full-length
notes: full-length clone from human liver cDNA, expressed in yeast
- abolition of the ODC inhibition caused by antizyme (antizyme): the ODC inhibition caused by antizyme was abolished

From patent publication US20030165811A1, “Method for determining the activity of ornithine decarboxylase and for identifying effectors of ornithine decarboxylase activity” (priority 2001, published 2003)
